Where a chain is given by its changes, count along the chain named.
B1: murine-human chimeric antibody derived from murine PDL1#10 (Chimeric IgG) (antibody, V domains shown)
VH: EVQLQQSGAELVRPGSSVKMSCKTSGYTFTSYSINWVKQRPGQGLEWIAYFYVGNGYTDYNEKFKGKATLTSDTSSSTAYMQLSSLTSEDSAIYFCARGGLPYYFDYWGQGTTLTVSS
VL: DIVMTQSHKFMSTSVGDRVSITCKTSQDVNTAVAWYQQKPGHSPKLLFYWASTRHTGVPDRFTGGGSGTDYTLTISSVQAEDLALYYCQQHYNTPLTFGAGTRLELKR
notes: also called mouse-human chimeric antibody
B2: AS01790 (humanized full-length IgG) (antibody, V domains shown)
VH: EVQLVQSGAEVKKPGESLKISCKGSGYSFTSYSINWVRQMPGKGLEWMGYFYVGNGYTDYNEKFKGRVTMTRNTSISTAYMELSSLRSEDTAVYYCARGGLPYYFDYWGQGTLVTVSS
VL: DIQMTQSPSTLSASVGDRVTITCKTSQDVNTAVAWYQQKPGKAPKLLIYWASTRHTGVPSRFSGSGSGTEFTLTISSLQPEDFATYYCQQHYNTPLTFGGGTKLEIKR
notes: Full-length IgG expressed in HEK293 cells, protein A purified
B3: AS02013 (humanized full-length IgG) (antibody, V domains shown)
VH: B2 VH with M40A
VL: B2 VL with M4L, T10S, K42Q, K45R, E70D
notes: as for B2
B4: AS01814 (humanized full-length IgG) (antibody, V domains shown)
VH: QVQLVQSGSELKKPGASVKVSCKASGYTFTSYSINWVRQAPGKGLEWVAYFYVGNGYTDYNEKFKGRVTITADESTSTAYMELSSLRSEDTAVYYCARGGLPYYFDYWGQGTLVTVSS
VL: B2 VL with I48L, V58I, S60A, P80S, T85V
notes: as for B2
B5: murine-human chimeric Fab (from mAb PDL1#10) (Fab, V domains shown)
VH: B1 VH
VL: B1 VL
B6: AS02013 (humanized Fab) (Fab, V domains shown)
VH: B2 VH with M40A
VL: DIQLTQSPSSLSASVGDRVTITCKTSQDVNTAVAWYQQKPGQAPRLLIYWASTRHTGVPSRFSGSGSGTDFTLTISSLQPEDFATYYCQQHYNTPLTFGGGTKLEIK
notes: Purified humanized Fab
B7: AS01807 (humanized Fab) (Fab, V domains shown)
VH: B4 VH with V48M, A49G, A72R, E74T, T76A
VL: B6 VL with L4M, L11V, G41D, A43S, R45K, Y49K
notes: Purified humanized Fab
B8: AS01825 (humanized Fab) (Fab, V domains shown)
VH: B4 VH with V2M, S9A, L11V, P14T, A16S, A40M, V48M, A49G
VL: B6 VL with S10F, Q42K, R45K, F83V
notes: Purified humanized Fab
B9: AS02002 (humanized Fab) (Fab, V domains shown)
VH: B4 VH with V2M, S9A, L11V, P14T, A16S, P41R, K43Q, G44R, V48I, A49G
VL: B6 VL with L4M, G41D, A43S, R45K, Y49K, V58I, S60A, D70E, P80S, T85V
notes: Purified humanized Fab
B10: AS01814 (humanized Fab) (Fab, V domains shown)
VH: B4 VH
VL: B6 VL with L4M, S10T, Q42K, R45K, I48L, V58I, S60A, D70E, P80S, T85V
notes: Purified humanized Fab
B11: AS01789 (humanized Fab) (Fab, V domains shown)
VH: EVQLVQSGAEVKKPGESLKISCKGSGYSFTSYSINWVRQAPGQALEWMGYFYVGNGYTDYNEKFKGRVTITRDTSASTAYMELSSLRSEDTAVYYCARGDLPFYFDYWGDGILVTVAS
VL: DIVMTQSPDSLAVSLGERATINCKTSQDVNTAVAWYQQKPGQPPKLLIYWASTRHTGVPDRFSGSGSGTDFTLKISRVEAEDVGVYYCQQHYNTPLTFGGGTKLEIK
notes: Purified humanized Fab
B12: AS01978 (humanized Fab) (Fab, V domains shown)
VH: B2 VH with M40A, M70I, R72T, N73D, T74E, I76T
VL: B6 VL with G41D, A43S, R45K, Y49K
notes: Purified humanized Fab
B13: AS01790 (humanized Fab) (Fab, V domains shown)
VH: B2 VH
VL: B6 VL with L4M, S10T, Q42K, R45K, D70E
notes: Purified humanized Fab derived from PDL1#10 (pFASEBA vector, E. coli)
B14: AS01995 (humanized Fab) (Fab, V domains shown)
VH: B2 VH with M40A
VL: B6 VL with L4M, L11V, Q42K, R45K, I48L, F83V
notes: Purified humanized Fab
B15: AS01979 (humanized Fab) (Fab, V domains shown)
VH: B2 VH with M40A
VL: B6 VL with L4M, L11V, A43P, R45K, S60D, P80A, F83V, T85V
notes: Purified humanized Fab
B16: AS01817 (humanized Fab) (Fab, V domains shown)
VH: B2 VH with M40A, M70I, N73D, I76A
VL: B6 VL with S10F, A43P, R45K
notes: Purified humanized Fab
B17: AS01824 (humanized Fab) (Fab, V domains shown)
VH: B4 VH
VL: EIVMTQSPATLSVSPGERATLSCKTSQDVNTAVAWYLQKPGQSPQLLIYWASTRHTGVPSRFSGSGSGTDYTLTISSLQPEDFATYYCQQHYNTPLTFGGGTKLEIK
notes: Purified humanized Fab

Target: T1, His-tagged PD-L1 protein (human, UniProt Q9NZQ7 19-238)
T1 construct: also called His-tagged antigen PD-L1 protein; human PD-L1; not shown: His tag
Experiment: SPR, Biacore T200, full-length IgG, 1:1 interaction model
From the text: Binding data for each antibody was processed and fitted to 1:1 interaction model using Biacore T200 evaluation software. All experimental data could be well fitted to the model.

T1 sequence (Q9NZQ7 19-238 limits assumed): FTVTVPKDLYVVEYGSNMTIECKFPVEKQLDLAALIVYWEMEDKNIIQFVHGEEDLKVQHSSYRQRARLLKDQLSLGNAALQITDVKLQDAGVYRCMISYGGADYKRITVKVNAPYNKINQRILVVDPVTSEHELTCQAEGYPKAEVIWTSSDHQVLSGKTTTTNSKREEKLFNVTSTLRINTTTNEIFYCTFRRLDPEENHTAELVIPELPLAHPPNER

| Binder | Kd [nM] | koff [s⁻¹] | kon [M⁻¹ s⁻¹] |
| --- | --- | --- | --- |
| B1 | 1 | 0.000338 | 336000 |
| B2 | 0.769 | 0.000253 | 329000 |
| B3 | 0.751 | 0.000276 | 367000 |
| B4 | 0.461 | 0.000173 | 376000 |

Target: T1, His-tagged PD-L1 protein
Experiment: SPR, Biacore T200, multi-cycle; Fab captured on chip, His-tagged PD-L1 as analyte
Description: A combinatorial humanization phage display library was constructed using the heavy chain and light chain variable domain sequences of mAb PDL1#10. Briefly, frameworks of human antibodies with high sequence identities to PDL1#10 were selected and assembled using overlapping PCR. This humanized Fab phage display library was panned against PD-L1 Fc-fusion protein. Individual output phage clones were amplified in 96-deep-well plates and the amplified phage were assayed by ELISA against PD-L1 Fc-fusion protein. […] DNAs encoding the Fab fragments of the output phage were amplified and inserted in pFASEBA vector (Genscript) for the screening of the best humanized antibody clones. Individual Fab clones were expressed in 96-deep-well plates and the crude protein secreted by E. coli to the medium was assayed by ELISA against BSA and the antigen PD-L1 protein for the assessment of expression and binding activity, respectively. Thousands of humanized clones were screened and a number of clones with slower off-rate were identified, amongst which 14 clones with the highest binding affinities were subjected to multi-cycle affinity measurement. The binding affinity of the 14 purified Fabs to His-tagged PD-L1 protein were determined using a Surface Plasmon Resonance (SPR) biosensor, Biacore T200 (GE Healthcare) for multi-cycle affinity measurements. Fabs were immobilized on the sensor chip through capture method. His-tagged antigen PD-L1 protein was used as the analyte. The data of dissociation (kd) and association (ka) rate constants were processed using Biacore T200 evaluation software. The equilibrium dissociation constants (KD) were calculated from the ratio of kd over ka.

| Binder | Kd [nM] | koff [s⁻¹] | kon [M⁻¹ s⁻¹] |
| --- | --- | --- | --- |
| B5 | 0.29 | 0.00021 | 730000 |
| B6 | 0.38 | 0.0002 | 500000 |
| B7 | 1.4 | 0.00035 | 260000 |
| B8 | 1.1 | 0.00039 | 360000 |
| B9 | 1.5 | 0.00042 | 310000 |
| B10 | 0.16 | 0.00011 | 680000 |
| B11 | 1.1 | 0.00036 | 330000 |
| B12 | 1.6 | 0.00045 | 290000 |
| B13 | 0.35 | 0.00017 | 500000 |
| B14 | 0.37 | 0.00017 | 450000 |
| B15 | 0.4 | 0.00019 | 470000 |
| B16 | 0.93 | 0.00032 | 340000 |
| B17 | 0.87 | 0.00054 | 620000 |

From patent US20200190197A1 (REMD BIOTHERAPEUTICS, published 2020)
